Reference: patent US8409833B2 (Hokko Chemical Industry Co., Ltd., priority 2003, dated 2013)
Entries after “also recorded” stand apart in the source; their conditions may differ.

B1: AB10121 Atu3234 gene: recombinant scyllo-inositol dehydrogenase, Atu3234 gene product of Agrobacterium sp. AB10121 FERM P-17383, SEQ ID NO: 12 (protein, listed as Agrobacterium sp.)
chain: MAIEGKTTDKANKRIRLGMVGGGSGAFIGGVHRMAARLDNRFDLVAGALSSTPEKSLASGRELGLDPERCYGSFEEMAEKEALREDGIEAVAIVTPNHVHYPAAKAFLERGIHVICDKPLTSNLEDAKKLKDVADKADALFILTHNYTGYPMVRHARELVESGALGTIRLVQMEYPQDWLAEPIEQTGAKQAVWRTDPAQSGAGGSTGDIGTHAYNLGCFISGLEVDELAADVHTFVEGRRLDDNAHVMLRFKPKGGKQPAKGLLWCSQVAVGHENGLKVRVYGDKAGIEWTQADPNYLWFTKLGELKQLITRGGAGAGAAAARVTRIPSGHPEGYLEAFATIYTEAAHAIEARRTGSVLDKAVIYPTVDDGVKGVAFVTACIESGKKNGVWVKL
B2: myo-inositol 2-dehydrogenase: recombinant myo-inositol 2-dehydrogenase, product of BG10669 gene derived from Bacillus subtilis 168 ATCC23857 (protein, UniProt P26935 1-344, looked up)
Inositol …: MSLRIGVIGTGAIGKEHINRITNKLSGAEIVAVTDVNQEAAQKVVEQYQLNATVYPNDDSLLADENVDAVLVTSWGPAHESSVLKAIKAQKYVFCEKPLATTAEGCMRIVEEEIKVGKRLVQVGFMRRYDSGYVQLKEALDNHVIGEPLMIHCAHRNPTVGDNYTTDMAVVDTLVHEIDVLHWLVNDDYESVQVIYPKKSKNALPHLKDPQIVVIETKGGIVINAEIYVNCKYGYDIQCEIVGEDGIIKLPEPSSISLRKEGRFSTDILMDWQRRFVAAYDVEIQDFIDSIQKKGEVSGPTAWDGYIAAVTTDACVKAQESGQKEKVELKEKPEFYQSFTTVQN
B3: SIDH1: scyllo-inositol dehydrogenase purified from Acetobacter sp. AB10281, DEAE-unadsorbed fraction, SEQ ID NO: 28 (protein, listed as Acetobacter sp.)
chain: MTKRKLRIGLIGSGFMGRTHAFGYSTASRVFDLPFQPELTCLADISDEAAAKAADALGFARSTSDWRTLVNDPEIDVVNITAPNAFHKEMALAAIAAGKHVYCEKPLAPLAADAREMAEAAEAKGVKTQVGFNYLCNPMLALARDMIAAGELGEIRGYRGLHAEDYMADASSPFTFRLDPAGGGALADIGSHALATAEFLMGPAAGAITQVMGDCVTVIKTRPDGKGGTRAVEVDDIGRALLRFENGATGSVEGNWIATGRTMQHDFEVYGTKGALAFTQQRFNELHFFSSTDARGRKGFRRIEAGPEHAPYGLFCVAPGHQLGFNDLKAIEVARYLEALAGHHPEPFNFRAGLRIQTLVETIHASSKSAAWRDVPTDKVKLQAKSRQHEKA

Tests used:
Type in all cases: biochemical
[1] = Km values of scyllo-inositol dehydrogenase for scyllo-inosose (reciprocal plot); conditions: NADPH, pH 8.0, 36° C.
Description: The determination is carried out such that the Km value is calculated after reciprocal plot according to the general method.
After the reaction, […] of water was immediately added thereto, and the absorbance at 340 nm was measured. From the blank value of a test solution prepared by using water instead of the enzyme solution, the decrease in the absorbance at 340 nm was measured. The enzyme solution was diluted as required. The Km values were calculated by the reciprocal plot.

[2] = Effects of heavy metal on scyllo-inositol dehydrogenase; conditions: 2 mM heavy metal in reaction solution; no addition group = 100%
Description: Effects by the heavy metals can be confirmed by: mixing 5 μl of a reaction solution (200 mM Tris buffer of pH 8.0 containing 2% of NADPH, 1% of scyllo-inosose, and 2 mM metal salt) and 5 μl of an enzyme solution; allowing the mixture to react at 36° C. for 30 minutes; adding 500 μl of water immediately after the completion of the reaction; determining the absorbance at 340 nm; and determining a decrease in the absorbance at 340 nm with respect to a blank value of a test solution containing water instead of the enzyme solution. The term “activated” means the case where the enzymatic activity of a fraction added with 1 mM of a heavy metal is 105% or more, preferably 120% or more, with respect to the enzymatic activity of a fraction added with no heavy metal as 100%. On the other hand, the term “inhibited” means the case where the enzymatic activity of the fraction added with 1 mM of a heavy metal is 95% or less, preferably 70% or less, with respect to the enzymatic activity of the fraction added with no heavy metal as 100%.
The effects of heavy metal on the enzymes of the present invention were determined by: mixing 5 μl of a reaction solution (200 mM Tris buffer (pH 8.0), 2% of NADPH, 1% of scyllo-inosose, and 2 mM of a heavy metal) with 5 μl of an enzyme solution; and allowing the mixture to react at 36° C. for 30 min. After the reaction, 500 μl of water was immediately added thereto, and the absorbance at 340 nm was measured. From the blank value of a test solution prepared by using water instead of the enzyme solution, the decrease in the absorbance at 340 nm was measured. The enzyme solution was diluted as required. CaCl2, CoCl2, ZnSO4, MgSO4, SnCl2, NiCl2, and MnSO4 were used as metallic salts. The activity of the no addition group was defined as 100%, and the relative activities were compared. […] Most of the enzymes were inhibited in the presence of Zn^2+ ion, in contrast, the enzyme derived from Bacillus subtilis 168 was activated in the presence of Zn^2+ ion.

[3] = Enzyme reaction product of scyllo-inosose reduction measured by HPLC; conditions: for Reduction reaction product: SIS: scyllo-inosose, SI: scyllo-inositol
Description: Meanwhile, the enzyme reaction product was measured as follows: 10 mg of scyllo-inosose, 40 mg of NADPH, and 10 U of the enzyme were allowed to react in 1.0 ml of 100 mM Tris buffer (pH 8.0) at 36° C. for 4 hours, and a heat treatment was performed at 80° C. for 10 min, followed by cooling. Then, 100 μl of a strong base cation exchange resin, 100 μl of a strong acid anion exchange resin, and 10 mg of activated carbon were added, and the mixture was stirred and centrifuged. Then, the supernatant was diluted 2-fold, and measurement was performed by HPLC (Shodex Asahipak NH2P-50 4E Φ 4.6×250 mm: Shodex) using an RI detector under the condition of a column temperature of 40° C. and a mobile phase flow rate of 1.5 ml (80% acetonitrile). […] Meanwhile, the sequence of the ydgJ gene is shown in SEQ ID NO: 1, and the amino acid sequence corresponding thereto is shown in SEQ ID NO: 2.
Meanwhile, enzyme reaction product was measured as follows: 10 mg of scyllo-inosose, 40 mg of NADPH, and 10 U of the enzyme were allowed to react in 1.0 ml of 100 mM Tris buffer (pH 8.0) at 36° C. for 4 hours, and a heat treatment was performed at 80° C. for 10 min, followed by cooling. Then, 100 μl of a strong base cation exchange resin, 100 μl of a strong acid anion exchange resin, and 10 mg of activated carbon were added, and the mixture was stirred and centrifuged. Then, the supernatant was diluted 2-fold, and measurement was performed by HPLC (Shodex Asahipak NH2P-50 4E Φ 4.6×250 mm: Shodex) using an RI detector under conditions of a column temperature of 40° C. and a mobile phase flow rate of 1.5 ml (80% acetonitrile).

[4] = Substrate specificity of scyllo-inositol dehydrogenase (relative activity of oxidation, absorbance at 545 nm); conditions: relative to reactivity to scyllo-inositol, NADP^+, pH 8.0, 25° C.
Description: Examples of an inositol isomer include scyllo-inositol (SI), myo-inositol (MI), D-chiro-inositol (DCI), L-chiro-inositol (LCI), epi-inositol (EI), muco-inositol (MuI), allo-inositol (AI), and neo-inositol (NI).
The inositol isomers include scyllo-inositol (SI), myo-inositol (MI), D-chiro-inositol (DCI), L-chiro-inositol (LCI), epi-inositol (EI), muco-inositol (MuI), allo-inositol (AI), and neo-inositol (NI).
The reaction rate was calculated from the absorbance increments at the respective times.

[5] = Optimum pH of scyllo-inositol dehydrogenase; conditions: 200 mM phosphate buffer (pH 5.0 to 9.0); 90% or more of the maximum activity
Description: The optimum pH can be confirmed by: mixing 5 μl of a reaction solution (200 mM […] of pH 5.0 to 9.0 containing 2% of NADPH, and 1% of scyllo-inosose) and 5 μl of an enzyme solution; allowing the mixture to react at 36° C. for 30 minutes; adding 500 μl of water immediately after the completion of the reaction; determining the absorbance at 340 nm; and determining a decrease in the absorbance at 340 nm with respect to a blank value of a test solution containing water instead of the enzyme solution. The term “optimum pH” means a pH at which the enzyme has 90% or more of the maximum activity. The enzyme of the present invention can be divided depending on, for example, a range of the optimum pH into groups each having: an optimum pH in an acidic region (optimum pH is pH of 5.5 to 6.5); an optimum pH in a neutral region (optimum pH is pH of 6.5 to 7.5 or 6.5 to 8.5); and an optimum pH in an alkaline region (optimum pH is pH of 7.0 to 8.5 or 7.5 to 9.0).
The optimum pH of the enzymes of the present invention was determined by: mixing 5 μl of a reaction solution (200 mM phosphate buffer (pH 5.0 to 9.0), 2% of NADPH, and 1% of scyllo-inosose) with 5 μl of an enzyme solution; and allowing the mixture to react at 36° C. for 30 min. After the reaction, 500 μl of water was immediately added thereto, and the absorbance at 340 nm was measured. From the blank value of a test solution prepared by using water instead of the enzyme solution, the decrease in the absorbance at 340 nm was measured. The enzyme solution was diluted as required.

[6] = Reducing and oxidation activity of recombinant myo-inositol 2-dehydrogenase (BG10669 gene product)
Description: The myo-inositol 2-dehydrogenase reducing activity was measured as described below. 5 μl of a reaction solution (200 mM Tris buffer (pH 8.0), 2% of NADH, 1% of scyllo-inosose) was mixed with 5 μl of an enzyme solution, and the mixture was allowed to react at 36° C. for 30 min. Immediately after the reaction, 500 μl of water was added, and the absorbance at 340 nm was measured. From the blank value of a test tube prepared by using water instead of the enzyme solution, the decrease in the absorbance at 340 nm was measured. […] The reaction rate was calculated from the absorbance increments at the respective times.

| Molecule | Km [1] [mM] | Heavy metal effects: activation [2] | Heavy metal effects: strong inhibition [2] | share of scyllo-inositol in the product of scyllo-inosose reduction ([3]; 10 mg scyllo-inosose, 40 mg NADPH, 10 U enzyme, 36° C., 4 hours, myo-inositol not detected) [%] | Reduction reaction product [3] | Substrate specific Relative activity (20 to 70%) [4] | Substrate specific Relative activity (70% or more) [4] | Substrate specific Relative activity (less than 20%) [4] | Optimum pH [5] | oxidation activity on myo-inositol ([6]; 1% myo-inositol, NAD^+, pH 8.0, 25° C.) | oxidation activity on scyllo-inositol ([6]; 1% scyllo-inositol, NAD^+, pH 8.0, 25° C.) | reducing activity on scyllo-inosose ([6]; NADH, pH 8.0, 36° C., 30 min) |
| --- | --- | --- | --- | --- | --- | --- | --- | --- | --- | --- | --- | --- |
| B1 | 3.1 | Co, Mn, Ca | Sn, Zn | 100 | Only SIS → SI | MuI | SI, MI, DCI, EI, and LCI | AI, NI | pH 7.0-8.5 | – | – | – |
| B2 | – | – | – | – | – | – | – | – | – | have an activity to oxidize myo-inositol | no activity to oxidize scyllo-inositol | have an activity to reduce scyllo-inosose |
| B3 | 7.6 | Co | Sn, Zn | – | Only SIS → SI | – | – | DCI, LCI, EI,; also recorded: MuI, AI, NI | pH 5.5-6.5 | – | – | – |
